# Values quoted from earlier work as cited in patent US6368617B1, “Dietary supplement” (Reliv' International, Inc., priority 2001, dated 2002).
# Like-named read-outs stand apart in the source and are kept apart here.
Substance,half-life (circulating),half-life (serum)
"Growth Hormone: endocrine hormone produced by the pituitary, also known as somatotropin",about 20 minutes,–
"IGF-1: growth-promoting metabolite of hGH, somatomedin C, commercially known as Insulin-like Growth Factor type 1",–,about 20 hours
